{"source": "patent US10377818B2", "about": "“Method of treating glioma” (The Board of Trustees of the Leland Stanford Junior …, priority 2015, dated 2019)", "assay_type_in_all_cases": "cell-based, human", "key": {"SU-pcGBM2 cells": {"test_system": "SU-pcGBM2 cells", "assay": "EdU incorporation assay, proliferation index of pHGG cells (SU-pcGBM2)"}, "Fos mRNA": {"test_system": "Fos mRNA", "assay": "qPCR of Fos gene expression in pHGG cells", "conditions": "50 nM NLGN3, 1 hour vs vehicle", "method": "A) Signaling through the PI3K pathway increases in response to NLGN3. Representative Western blot illustrating increased phosphorylation of AKT in response to various concentrations of NLGN3 ranging from 0-50 nM. p-AKT is shown in top panel; total AKT is shown in the bottom panel. B) Quantification of the increased fold change of pAKT/AKT ratio in response to NLGN3 at various doses (oneway ANOVA, F=17.99, P<001; data shown as mean±SEM; *P<0.05, **P<0.01, ***P<0.001 by Tukey's post-hoc tests to further examine pairwise comparisons). Fold change is normalized to blank media (aCSF). (C) Fos mRNA expression increases after 1 hour exposure to […] 50 nM NLGN3 (data shown as mean±SEM; **P<0.01 by unpaired two-tailed Student's t-test). D) NLGN3 mRNA expression increases after 12 hour exposure to 50 nM NLGN3 vs. vehicle in SU-[…] cells. […]\nAfter various cell treatments (described in extended experimental procedures), RNA was extracted from 500,000 SU-pcGBM2 or SU-[…] cells using TRIzol reagent. cDNA was generated using RT-PCR, and gene expression changes were further probed using quantitative PCR.\n500,000 SU-pcGBM2 cells were exposed to either aCSF, 50 nM NLGN3 (Origene Technologies, Rockville), 500 nM BKM120 (SelleckChem, Houston, Tex.), 50 nM EGF (Shenandoah, Warwick, R.I.), or a combination of the above treatments. […] Differential expression was determined using the delta CT method. […]"}, "[1]": {"test_system": "HGG patient-derived cell lines (pediatric cortical glioblastoma, DIPG, adult glioblastoma)", "assay": "EdU proliferation index of various HGG patient-derived cell lines exposed to NLGN3", "conditions": "50 nM NLGN3 for 24 hours", "method": "A) Recombinant NLGN3 promotes pediatric high-grade glioma cell proliferation in a dose-dependent manner, plateauing at a low nanomolar concentration. 7-point dose curve plots proliferation index as measured by EdU^+/DAPI^+ staining at 24 hours following exposure of SU-pcGBM2 cells to NLGN3 at concentrations ranging from 0-100 nM. Shaded region indicates concentration present in active CM. B) Proliferation indices of various HGG patient-derived cell lines exposed to 50 nM NLGN3 for 24 hours. Data are shown as mean±SEM. ***P<0.001 by unpaired two-tailed Student's t-tests. C) Neurexin-1β, which binds to NLGN3 with high affinity, abrogates the mitogenic effect of active slice CM. […]\nNLGN3 promotes proliferation in a broad range of HGG cultures. […] After 24-hour exposure, all cell lines were evaluated with the EdU assay to determine proliferation index (unpaired two-tailed Student's t-tests).\nTo assess the number of cells actively synthesizing new DNA in response to various conditions (see extended experimental procedures), SU-pcGBM2, SU-DIPGIV, SU-DIPGXIII, or SU-GBM035 cells were exposed to active CM or various recombinant proteins along with 10-μM EdU and fixed after 24 hours. EdU incorporation was determined using Click-iT EdU visualization (Invitrogen, Grand Island, N.Y.). […]"}, "[2]": {"test_system": "mTOR (phospho-4E-BP1 T37/46)", "assay": "Western blot of phospho-4E-BP1 as reporter of mTOR activity", "conditions": "50 nM NLGN3 vs aCSF", "method": "Top panel, 4E-P1^T37/46; bottom panel, total 4E-BP1. B) Quantification of p4E-BP1T37/46/4E-BP1 ratio fold change after NLGN3 exposure normalized to aCSF control (unpaired two-tailed Student's t-test). C) 50 nM NLGN3-induced increase in SU-pcGBM2 proliferation index (EdU assay) is blocked by inhibition of PI3K by BKM120 (100 nM). […] All experiments performed in n=3 biological replicates. Data shown as mean±SEM. (See also FIG. 34, Table in FIG. 18.)\nEndogenous protein levels were determined using Western blot analysis. Briefly, after various treatments, 400,000 SU-pcGBM2 cells were lysed and loaded onto SDS-PAGE gels. Proteins were separated with gel electrophoresis and transferred to a PVDF membrane. Proteins were then probed for various antibodies as described in extended experimental procedures."}}, "data": [{"molecule": "NLGN3: Recombinant full-length neuroligin-3 (Origene), tested as glioma mitogen (protein, listed as Mus musculus) MWLQPSLSLSPTPTVGRSLCLTLGFLSLVLRASTQAPAPTVNTHFGKLRGARVPLPSEILGPVDQYLGVPYAAPPIGEKRFLPPEPPPSWSGIRNATHFPPVCPQNIHTAVPEVMLPVWFTANLDIVATYIQEPNEDCLYLNVYVPTEDGSGAKKQGEDLADNDGDEDEDIRDSGAKPVMVYIHGGSYMEGTGNMIDGSVLASYGNVIVITLNYRVGVLGFLSTGDQAAKGNYGLLDQIQALRWVSENIAFFGGDPRRITVFGSGIGASCVSLLTLSHHSEGLFQRAIIQSGSALSSWAVNYQPVKYTSLLADKVGCNVLDTVDMVDCLRQKSAKELVEQDIQPARYHVAFGPVIDGDVIPDDPEILMEQGEFLNYDIMLGVNQGEGLKFVEGVVDPEDGVSGTDFDYSVSNFVDNLYGYPEGKDTLRETIKFMYTDWADRDNPETRRKTLVALFTDHQWVEPSVVTADLHARYGSPTYFYAFYHHCQSLMKPAWSDAAHGDEVPYVFGVPMVGPTDLFPCNFSKNDVMLSAVVMTYWTNFAKTGDPNKPVPQDTKFIHTKANRFEEVAWSKYNPRDQLYLHIGLKPRVRDHYRATKVAFWKHLVPHLYNLHDMFHYTSTTTKVPPPDTTHSSHITRRPNGKTWSTKRPAISPAYSNENAPGSWNGDQDAGPLLVENPRDYSTELSVTIAVGASLLFLNVLAFAALYYRKDKRRQEPLRQPSPQRGTGAPELGTAPEEELAALQLGPTHHECEAGPPHDTLRLTALPDYTLTLRRSPDDIPLMTPNTITMIPNSLVGLQTLHPYNTFAAGFNSTGLPHSHSTTRV", "values": [{"measurement": "proliferation index", "setting": "SU-pcGBM2 cells; pHGG cells exposed to 50 nM NLGN3, 24 h, EdU", "result": "0.40±0.01"}, {"measurement": "effect on proliferation index, dose curve", "setting": "SU-pcGBM2 cells; recombinant NLGN3 0-100 nM, 24 hours", "result": "promotes proliferation, matching the mitogenic effect of active CM at low nanomolar concentrations"}, {"measurement": "effect on proliferation index relative to aCSF control", "setting": "SU-pcGBM2 cells; recombinant candidate proteins at 100 nM for 24 hours", "result": "promote glioma cell proliferation"}, {"measurement": "Fos gene expression", "setting": "Fos mRNA", "result": "upregulation of Fos gene expression"}, {"measurement": "effect on proliferation index", "setting": "[1]", "result": "promoted a significant increase in the proliferation index"}, {"measurement": "phospho-4E-BP1 T37/46 relative to total 4E-BP1", "setting": "[2]", "result": "increase in phospho-4E-BP1^T37/46 relative to total 4E-BP1"}]}]}
